The results in this text go back to article doi:10.1101/2024.11.06.622366.

Read-outs that look alike come from different tables or passages of the source.

In assay [1] the target is 11S, large fragment of a split luciferase.
For assay [2] the target is unchanged. This is another data set of the same source.
Assay [3] shares this target. This is another data set of the same source.
For assay [4] the target is unchanged. This is another data set of the same source.
The target is the same in assay [5]. The source holds these as a separate data set.
Assay [6] shares this target. This is another data set of the same source.
Assay [7] has the same target. This is another data set of the same source.
The target is the same in assay [8]. This is another data set of the same source.

One may read the Kd as the constant that tells how readily two partners part at equilibrium. Read a high Kd as weaker binding. As for “PINK1 DDL I111S (from UniProt Q9BXM7 78-581)”, the Kd in assay [1] stood at 144 nM.
In assay [2], “PINK1(3EA) DDL (from UniProt Q9BXM7 78-581)” had a Kd of 715 nM.
Regarding “PINK1(3EA) DLD (from UniProt Q9BXM7 78-581)”, in assay [3], the Kd worked out at 93.7 nM.
The substance “PINK1(3EA) LDD (from UniProt Q9BXM7 78-581)” gave a dissociation constant Kd in assay [4] of 284 nM.
The substance “PINK1(ALALAL) DDL (from UniProt Q9BXM7 78-581)” registered a Kd in assay [5] of 133 nM.
Substance “PINK1Δ(1-50) DDL (from UniProt Q9BXM7 51-581)” displayed a Kd in assay [6] of 238 nM.
For the substance “PINK1Δ(1-91) DDL (from UniProt Q9BXM7 92-581)”, the Kd in assay [7] was 187 nM.
“PINK1Δ(1-150) DDL (from UniProt Q9BXM7 151-581)”: the Kd in assay [8] is 447 nM.
